How the values were obtained:
[1] = biological target: UBQLN1 loaded with Ub-Omp25 (UniProt Q9UMX0); assay: pull-down; client (Omp25 or Ub-Omp25) translated in lysate lacking ubiquitin, UbcH5 and the major TMD-binding factors, supplemented with 40 nM recombinant FLAG-tagged UBQLN1 variant; affinity purified via the FLAG tag; autoradiography for the client, immunoblot for proteasome subunit α7
[2] = biological target: FLAG-tagged construct containing the Omp25 TMD, translated in the PURE system; assay: co-sedimentation; Omp25 TMD construct translated in the PURE system with 35S-methionine and 15 uM recombinant chaperone; sucrose gradient, autoradiography
[3] = biological target: UBQLN UBL domain UBL (Homo sapiens) (UniProt Q9UMX0); settings: cited from earlier work

Substance: proteasome, endogenous in rabbit reticulocyte lysate (from UniProt G1SZ14 1-326) (complex)
- fold proteasome association relative to UBQLN1 loaded with Omp25 [1]: 2 to 3 fold

Substance: recombinant UBQLN1 (FLAG-tagged) (from UniProt Q9UMX0 1-589) (natural protein)
- stoichiometry N [2]: 1

Substance: UBQLN UBA domain UBA (from UniProt Q9UMX0)
- Kd [3]: 80 µM

From PMC4942676
